Results taken from article doi:10.1101/2023.06.23.546240.

Tests used:
Experiment in all cases: SPR
Conditions in all cases: not given in the material (no Methods text)
[1] = molecular target: MILI (PIWIL2) (mouse) (UniProt Q8CDG1)
[2] = molecular target: HILI (PIWIL2) (human) (UniProt Q8TC59)
[3] = molecular target: T1, EfPiwi (Ephydatia fluviatilis) (UniProt D5MRY8)
T1 sequence: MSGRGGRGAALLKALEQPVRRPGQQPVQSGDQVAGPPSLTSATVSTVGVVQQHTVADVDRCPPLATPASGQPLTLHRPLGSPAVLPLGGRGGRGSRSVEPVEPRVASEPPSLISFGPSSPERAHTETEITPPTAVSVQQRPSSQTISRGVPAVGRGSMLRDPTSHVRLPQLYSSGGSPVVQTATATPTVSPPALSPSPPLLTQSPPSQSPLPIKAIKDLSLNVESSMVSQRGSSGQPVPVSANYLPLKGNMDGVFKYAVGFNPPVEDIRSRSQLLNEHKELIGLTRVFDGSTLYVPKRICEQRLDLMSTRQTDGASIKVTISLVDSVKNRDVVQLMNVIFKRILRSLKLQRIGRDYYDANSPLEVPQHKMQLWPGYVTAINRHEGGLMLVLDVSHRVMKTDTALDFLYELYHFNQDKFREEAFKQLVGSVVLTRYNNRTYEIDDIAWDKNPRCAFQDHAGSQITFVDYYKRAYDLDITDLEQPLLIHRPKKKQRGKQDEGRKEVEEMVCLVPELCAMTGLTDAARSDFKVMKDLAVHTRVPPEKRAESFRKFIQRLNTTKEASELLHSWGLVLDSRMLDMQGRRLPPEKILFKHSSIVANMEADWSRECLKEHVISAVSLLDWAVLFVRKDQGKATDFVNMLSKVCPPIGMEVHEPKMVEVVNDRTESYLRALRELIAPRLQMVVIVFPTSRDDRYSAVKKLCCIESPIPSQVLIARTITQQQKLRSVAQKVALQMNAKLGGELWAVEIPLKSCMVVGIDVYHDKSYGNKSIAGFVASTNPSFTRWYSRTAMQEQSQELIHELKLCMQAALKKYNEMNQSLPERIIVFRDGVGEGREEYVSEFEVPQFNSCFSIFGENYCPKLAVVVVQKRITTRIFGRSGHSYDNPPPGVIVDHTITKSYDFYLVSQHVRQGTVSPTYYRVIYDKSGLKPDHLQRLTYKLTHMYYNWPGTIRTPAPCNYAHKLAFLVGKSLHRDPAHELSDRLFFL

Sequence of HILI (PIWIL2) (human) (Q8TC59 whole entry): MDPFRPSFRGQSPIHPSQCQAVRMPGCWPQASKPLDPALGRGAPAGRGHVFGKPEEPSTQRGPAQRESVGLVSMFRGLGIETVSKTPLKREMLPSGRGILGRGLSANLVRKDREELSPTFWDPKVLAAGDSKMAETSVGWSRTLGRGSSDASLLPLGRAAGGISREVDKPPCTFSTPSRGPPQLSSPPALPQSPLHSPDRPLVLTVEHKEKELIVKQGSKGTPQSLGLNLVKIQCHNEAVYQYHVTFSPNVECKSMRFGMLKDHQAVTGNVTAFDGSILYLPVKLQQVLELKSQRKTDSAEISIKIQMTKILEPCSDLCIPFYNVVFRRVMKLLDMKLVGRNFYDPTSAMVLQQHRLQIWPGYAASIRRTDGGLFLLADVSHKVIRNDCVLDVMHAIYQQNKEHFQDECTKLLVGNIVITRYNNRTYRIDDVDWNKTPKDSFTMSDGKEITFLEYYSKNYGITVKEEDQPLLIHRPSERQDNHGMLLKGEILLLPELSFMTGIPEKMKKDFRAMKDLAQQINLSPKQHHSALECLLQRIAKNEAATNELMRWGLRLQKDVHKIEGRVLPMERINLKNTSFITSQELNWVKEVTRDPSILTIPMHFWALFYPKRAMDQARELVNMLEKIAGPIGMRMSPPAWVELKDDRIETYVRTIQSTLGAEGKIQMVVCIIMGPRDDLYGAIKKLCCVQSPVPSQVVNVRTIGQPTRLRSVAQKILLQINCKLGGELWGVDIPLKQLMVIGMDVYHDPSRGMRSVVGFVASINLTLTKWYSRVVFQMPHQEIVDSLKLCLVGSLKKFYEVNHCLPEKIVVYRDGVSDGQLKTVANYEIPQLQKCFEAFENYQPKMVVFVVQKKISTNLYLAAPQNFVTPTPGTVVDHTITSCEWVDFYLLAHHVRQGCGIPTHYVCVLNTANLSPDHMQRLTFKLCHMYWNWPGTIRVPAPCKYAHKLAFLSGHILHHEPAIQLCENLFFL
Sequence of MILI (PIWIL2) (mouse) (Q8CDG1 whole entry): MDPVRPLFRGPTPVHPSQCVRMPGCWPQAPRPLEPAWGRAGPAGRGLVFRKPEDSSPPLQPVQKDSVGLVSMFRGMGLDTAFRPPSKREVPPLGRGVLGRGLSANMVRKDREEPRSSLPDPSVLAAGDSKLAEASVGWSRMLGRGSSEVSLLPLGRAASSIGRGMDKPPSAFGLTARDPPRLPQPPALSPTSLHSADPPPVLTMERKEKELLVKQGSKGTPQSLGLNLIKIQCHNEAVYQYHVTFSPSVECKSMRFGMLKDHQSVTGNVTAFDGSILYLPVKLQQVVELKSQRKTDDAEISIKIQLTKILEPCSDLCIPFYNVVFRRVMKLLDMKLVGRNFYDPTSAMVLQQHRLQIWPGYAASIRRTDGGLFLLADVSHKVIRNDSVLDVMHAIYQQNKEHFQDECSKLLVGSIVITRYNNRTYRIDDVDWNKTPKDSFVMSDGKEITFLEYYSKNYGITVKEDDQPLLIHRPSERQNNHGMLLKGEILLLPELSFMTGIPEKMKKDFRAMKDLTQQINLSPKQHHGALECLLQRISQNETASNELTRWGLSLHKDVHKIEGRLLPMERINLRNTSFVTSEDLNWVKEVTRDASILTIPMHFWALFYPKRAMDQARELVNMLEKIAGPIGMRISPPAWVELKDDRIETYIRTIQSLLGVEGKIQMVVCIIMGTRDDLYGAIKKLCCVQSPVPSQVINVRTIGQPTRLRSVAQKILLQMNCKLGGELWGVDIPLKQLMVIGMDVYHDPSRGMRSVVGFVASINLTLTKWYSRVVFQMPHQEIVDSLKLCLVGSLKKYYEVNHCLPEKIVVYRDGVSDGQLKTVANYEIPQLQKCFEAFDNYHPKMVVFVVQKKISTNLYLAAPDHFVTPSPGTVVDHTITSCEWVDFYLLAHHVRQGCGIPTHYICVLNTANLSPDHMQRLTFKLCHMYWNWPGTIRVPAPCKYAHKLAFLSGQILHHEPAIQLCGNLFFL

| Substance | binding signal (fold higher affinity than EfPiwi) [1] | binding signal (fold higher affinity than EfPiwi) [2] | binding signal (fold higher KD than MILI or HILI) [3] |
| --- | --- | --- | --- |
| piRNA guide + seed-complementary (g2-g8) target | 6 | 6 | – |
| piRNA guide + target with g3-g4 dinucleotide mismatch | – | – | 20 |
